The values that follow come from the RNAGym collection of RNA variant scans (doi:10.7554/elife.80360).

B1: Hairpin Ribozyme (parent)
chain: GUCCUCUUUCACGUGCGCGUGAAAGAGAGAAGUGAACCAGAGAAACACACGUUGUGGUAUAUUACCUGGUA

Variants of B1 are the subject of the series. Nature of the series: self-cleavage, relative activity (ratio to wild type); higher = more cleavage; co-transcriptional.
On to U9G G19A, for which the self-cleavage worked out at 0.548.
As to C10A U55C, the self-cleavage stood at 0.248.
The same measure for C10A U55G: 0.303; for U9C G21U: 0.695; for U9G U62A: 0.0559.
Take U8G G54A: the self-cleavage is 0.456.
As to U8G G54C, the self-cleavage stood at 0.313.
In the case of U8G C10U it was 0.654; in that of U8G C10A, 0.725.
Regarding U9G U55A, the self-cleavage was 0.179.
In the case of U9C A59G it was 0.0975; in that of C10A A30C, 0.122.
The same measure for C10A A30G: 0.131; for C10A A30U: 0.156.
In the case of C10G A31C it was 0.198; in that of C10G A31G, 0.576; in that of U9G A35C, 0.637.
As for U9C A36U, the self-cleavage was determined as 0.444.
In the case of U9A U63A it was 0.212; in that of U9A U63C, 0.205; in that of U9A U63G, 0.151.
In the case of C10A U20A it was 0.781; in that of U9C A28U, 0.571; in that of U9C A28G, 1.33.
The same measure for U9G G32C: 0.0561; for U8G U67A: 0.145; for U8G U67C: 0.189.
For the variant U8G U67G, the self-cleavage stood at 0.242.
The same measure for C10A G68A: 0.177.
For the variant U9G A61U, the self-cleavage was found to be 0.211.
In the case of U9A G29A it was 0.0709; in that of U9A G29C, 0.154; in that of U9A G29U, 0.144.
The same measure for U8G U53C: 0.954.
In the case of U8G U53A it was 0.567; in that of C10A U60C, 0.579.
Regarding C10A U60G, the self-cleavage is 0.377.
The same measure for C10A U60A: 0.64.
Turning to U9C A43U, the self-cleavage is 0.298.
U8G C12G: the self-cleavage came to 0.146.
The same measure for U9C G40U: 0.169; for U9C G40C: 0.136.
The same measure for C10A C38U: 0.425; for U9C G29A: 0.118.
In the case of U9A U58C it was 0.72; in that of C10A G25C, 0.227.
Take C10A G25U: the self-cleavage is 0.356.
In the case of C10A G25A it was 0.187.
Take C10A U14G: the self-cleavage worked out at 0.632.
Consider C10A U14A, for which the self-cleavage is 0.661.
In the case of U9A A31G it was 0.313; in that of U9A C16U, 0.624.
Regarding U9A C16A, the self-cleavage is 0.626.
The same measure for U9C U58A: 0.559.
In the case of U9G A45G it was 0.205; in that of U9G A45U, 0.0827.
The same measure for U9G A49G: 0.558; for U9A A30G: 0.148; for U9A A30C: 0.172.
For C10A A45U, the self-cleavage came out at 0.121.
Take C10A A45C: the self-cleavage worked out at 0.111.
The same measure for U9C G42C: 0.264; for U9G C38G: 0.175; for U9C G34A: 0.812.
In the case of U9C G34C it was 1.3.
The same measure for C10A A49G: 0.357.
Turning to U9A U52C, the self-cleavage was determined as 0.6.
Regarding U9A U52A, the self-cleavage turned out to be 0.877.
In the case of C10A G29A it was 0.111.
In the case of U9G G40U it was 0.086; in that of U9G G40A, 0.179.
In the case of C10A A41U it was 1.04; in that of C10A A41C, 0.752.
As for U9C A61G, the self-cleavage came to 0.348.
U9A G42A: the self-cleavage stood at 0.132.
In the case of C10G A59C it was 0.127; in that of C10G A59G, 0.171; in that of U9A G34C, 1.08.
Consider U8G U9C, for which the self-cleavage was found to be 0.595.
The same measure for U8G U9G: 0.82.
In the case of U8G U60G it was 0.51.
For U9G A64C, the self-cleavage amounted to 0.164.
In the case of U9G A64G it was 0.478; in that of C10A A47G, 0.2.
Consider U8G G15U, for which the self-cleavage is 0.656.
In the case of C10G A22C it was 0.597.
On to U9A C48U, for which the self-cleavage is 0.134.
In the case of U9A C48G it was 0.127; in that of U9G G25U, 0.194; in that of U9G G25C, 0.255.
In the case of U9G A31U it was 0.1; in that of U9A G27C, 0.239; in that of U9A G27U, 0.326.
The same measure for U9G G51U: 0.814; for C10A G19U: 0.59; for U9C C50A: 0.215.
For the variant C10A A64G, the self-cleavage came to 0.397.
The same measure for C10G A47C: 0.307; for C10A U62G: 0.162; for C10A U62C: 0.241.
The same measure for U8G U33C: 0.117; for U8G U33A: 0.136.
In the case of U9G U60C it was 1.04.
On to U9G U60A, for which the self-cleavage amounted to 0.645.
For the variant U9A A64U, the self-cleavage was determined as 0.131.
On to U9G A43U, for which the self-cleavage was 0.111.
The same measure for U9G A43G: 0.116; for U9A A24G: 0.461.
The same measure for U9A A45U: 0.152; for U9A A45C: 0.154.
As to U9A A23G, the self-cleavage is 0.559.
In the case of U9A A28U it was 0.441; in that of C10G A28C, 0.306; in that of U9C A22U, 0.799.
On to U9C A30U, for which the self-cleavage was 0.12.
In the case of C10A G21A it was 0.856.
The same measure for C10A G21C: 0.67.
In the case of U9C G68A it was 0.344; in that of U9C C18A, 0.84.
Turning to U9C C18U, the self-cleavage worked out at 1.02.
In the case of U9G U70G it was 0.539; in that of U9A U33G, 0.105.
The same measure for U9A U33A: 0.0178; for U9A U33C: 0.177; for U8G G13C: 0.519.
In the case of U8G G13A it was 0.618; in that of U9G U67A, 0.0846; in that of U9A C50U, 0.22.
Consider U9C A23U, for which the self-cleavage came out at 0.528.
The same measure for U9C G51U: 0.463.
The same measure for U9C C66A: 0.248; for U9C C66U: 0.513.
C10A A11C: the self-cleavage was found to be 0.624.
The same measure for C10A A11G: 0.644; for U9C G56A: 0.171; for U8G G25U: 0.2.
In the case of U9C C38U it was 0.338.
In the case of U9C C38A it was 0.225; in that of U8G U20C, 0.425.
Consider C10A G56U, for which the self-cleavage amounted to 0.148.
In the case of C10A C12A it was 0.476; in that of U9A C12A, 0.377; in that of U9A C12G, 0.512.
The same measure for U9G G69U: 0.111; for U9G G69A: 0.223; for U9A C38G: 0.145.
The same measure for U8G G56C: 0.0783.
For the variant U8G G56A, the self-cleavage was 0.11.
The same measure for U8G G32A: 0.0907; for U9G C50A: 0.24; for U9G C50G: 0.208.
For the variant U9G C50U, the self-cleavage came to 0.393.
The same measure for U9A G69U: 0.245; for U9A G69C: 0.274.
The same measure for U9A G69A: 0.296.
In the case of U9G A24U it was 0.483; in that of U9A A43U, 0.105; in that of U9A A36U, 0.283.
On to C10A A35C, for which the self-cleavage came to 0.846.
In the case of C10A G15A it was 0.773; in that of C10A G15C, 0.755.
The same measure for C10A A44G: 0.178.
In the case of U9G U52C it was 0.546.
For the variant U9G U52G, the self-cleavage is 0.492.
In the case of U9G U52A it was 0.705.
The same measure for C10A A61G: 0.183; for U9A U67A: 0.147.
